# Assay results from publication PMC9482650, “Quantitative fragmentomics allow affinity mapping of interactomes” (Nature Communications, 2022).
# T1: TIAM2, Q8IVF5
# T1 sequence (Q8IVF5 885-986, limits assumed, looked up): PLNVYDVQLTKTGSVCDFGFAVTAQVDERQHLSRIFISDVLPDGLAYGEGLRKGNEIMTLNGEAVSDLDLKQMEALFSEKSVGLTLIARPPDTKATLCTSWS
# T2: APBA2_2, Q99767
# T2 sequence (Q99767 654-744, limits assumed, looked up): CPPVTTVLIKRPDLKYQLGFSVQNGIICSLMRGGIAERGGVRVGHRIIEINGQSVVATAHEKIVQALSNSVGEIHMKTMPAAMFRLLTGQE
# T3: RADIL, Q96JH8
# T3 sequence (Q96JH8 971-1071, limits assumed, looked up): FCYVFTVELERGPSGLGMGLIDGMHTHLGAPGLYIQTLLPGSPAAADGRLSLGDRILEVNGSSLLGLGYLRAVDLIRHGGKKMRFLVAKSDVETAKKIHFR
# T4: LRRC7, Q96NW7
# T4 sequence (Q96NW7 1440-1537, limits assumed, looked up): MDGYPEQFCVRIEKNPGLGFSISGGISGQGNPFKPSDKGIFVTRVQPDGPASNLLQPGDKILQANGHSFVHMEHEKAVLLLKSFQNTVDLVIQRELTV
# T5: LNX2_2, Q8N448
# T5 sequence (Q8N448 334-432, limits assumed, looked up): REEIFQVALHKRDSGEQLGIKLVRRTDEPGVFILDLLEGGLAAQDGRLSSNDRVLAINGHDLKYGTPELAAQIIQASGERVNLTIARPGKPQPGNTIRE
# T6: GRIP1_5, Q9Y3R0
# T6 sequence (Q9Y3R0 568-668, limits assumed, looked up): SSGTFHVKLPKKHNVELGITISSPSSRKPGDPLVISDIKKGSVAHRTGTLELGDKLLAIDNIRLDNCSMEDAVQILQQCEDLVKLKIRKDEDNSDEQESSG
# T7: SIPA1L2, Q9P2F8
# T7 sequence (Q9P2F8 945-1036, limits assumed, looked up): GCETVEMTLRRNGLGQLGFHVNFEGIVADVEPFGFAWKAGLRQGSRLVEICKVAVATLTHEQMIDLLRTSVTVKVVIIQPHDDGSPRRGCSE
# T8: FRMPD1, Q5SYB0
# T8 sequence (Q5SYB0 52-145, limits assumed, looked up): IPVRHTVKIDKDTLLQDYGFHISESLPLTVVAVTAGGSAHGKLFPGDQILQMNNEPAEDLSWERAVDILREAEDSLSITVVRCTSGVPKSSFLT
# T9: DLG3_2, Q92796
# T9 sequence (Q92796 221-321, limits assumed, looked up): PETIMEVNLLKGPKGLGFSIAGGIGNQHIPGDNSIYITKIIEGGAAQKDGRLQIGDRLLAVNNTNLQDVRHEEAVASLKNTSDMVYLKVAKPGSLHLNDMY
# T10: NHERF3_4, Q5T2W1
# T10 sequence (Q5T2W1 373-468, limits assumed, looked up): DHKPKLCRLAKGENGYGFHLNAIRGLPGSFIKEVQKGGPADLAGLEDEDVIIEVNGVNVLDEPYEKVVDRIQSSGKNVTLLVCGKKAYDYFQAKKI
# T11: APBA1_2, Q02410
# T11 sequence (Q02410 742-832, limits assumed, looked up): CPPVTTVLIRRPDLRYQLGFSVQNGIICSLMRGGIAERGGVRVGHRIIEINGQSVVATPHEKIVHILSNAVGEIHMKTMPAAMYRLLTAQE
# T12: MPP2, Q14168
# T12 sequence (Q14168 180-250, limits assumed, looked up): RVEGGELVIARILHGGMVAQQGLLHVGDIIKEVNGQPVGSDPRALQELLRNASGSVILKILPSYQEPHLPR
# T13: APBA2_1, Q99767
# T13 sequence (Q99767 563-664, limits assumed, looked up): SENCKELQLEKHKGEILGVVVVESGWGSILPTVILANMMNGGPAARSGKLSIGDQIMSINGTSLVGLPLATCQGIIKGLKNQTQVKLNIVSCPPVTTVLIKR
# Key:
# Assay in all cases: holdup assay
# Design in all cases: key: below the threshold = too weak to quantify, mostly under pKd 3.1 to 4
# Conditions in all cases: plain residues with an end cap or a label only (N-terminal biotin on a linker: ado-ado)
# LNX1_2, Q8TBB1 = molecular target: LNX1_2, Q8TBB1
# Chain of LNX1_2, Q8TBB1 (Q8TBB1 371-470): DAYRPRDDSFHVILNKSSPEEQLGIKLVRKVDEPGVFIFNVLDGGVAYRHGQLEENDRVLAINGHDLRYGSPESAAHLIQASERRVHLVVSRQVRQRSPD
# SCRIB_3, Q14160 = molecular target: SCRIB_3, Q14160
# Chain of SCRIB_3, Q14160 (Q14160 999-1103): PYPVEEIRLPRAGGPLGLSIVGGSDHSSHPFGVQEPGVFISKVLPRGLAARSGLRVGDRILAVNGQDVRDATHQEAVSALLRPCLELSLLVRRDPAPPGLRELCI
# FRMPD3, Q5JV73 = molecular target: FRMPD3, Q5JV73
# Chain of FRMPD3, Q5JV73 (Q5JV73 12-100): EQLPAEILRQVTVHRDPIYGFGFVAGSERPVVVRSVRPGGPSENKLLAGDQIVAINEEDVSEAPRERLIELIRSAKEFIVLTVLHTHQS
# PDLIM1, O00151 = molecular target: PDLIM1, O00151
# Chain of PDLIM1, O00151 (O00151 1-87): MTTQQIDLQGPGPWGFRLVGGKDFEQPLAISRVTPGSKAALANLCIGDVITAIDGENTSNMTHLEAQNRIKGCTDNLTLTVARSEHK
# TIAM2, Q8IVF5 = molecular target: T1, TIAM2, Q8IVF5
# APBA2_2, Q99767 = molecular target: T2, APBA2_2, Q99767
# DLG4_1, P78352 = molecular target: DLG4_1, P78352
# Chain of DLG4_1, P78352 (P78352 62-152): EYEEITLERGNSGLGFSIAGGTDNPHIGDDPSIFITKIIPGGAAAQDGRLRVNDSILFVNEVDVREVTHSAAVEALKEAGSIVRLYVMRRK
# Inadl_6, Q8NI35 = molecular target: Inadl_6, Q8NI35
# Chain of Inadl_6, Q8NI35 (Q8NI35 1058-1167): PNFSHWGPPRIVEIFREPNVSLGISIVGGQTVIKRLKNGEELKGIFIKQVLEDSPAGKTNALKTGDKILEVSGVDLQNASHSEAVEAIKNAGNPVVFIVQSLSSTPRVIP
# RADIL, Q96JH8 = molecular target: T3, RADIL, Q96JH8
# LRRC7, Q96NW7 = molecular target: T4, LRRC7, Q96NW7
# MAST2, Q6P0Q8 = molecular target: MAST2, Q6P0Q8
# Chain of MAST2, Q6P0Q8 (Q6P0Q8 1099-1202): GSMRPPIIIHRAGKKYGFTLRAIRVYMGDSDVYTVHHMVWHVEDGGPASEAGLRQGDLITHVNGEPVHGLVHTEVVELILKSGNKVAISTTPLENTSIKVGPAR
# LNX2_2, Q8N448 = molecular target: T5, LNX2_2, Q8N448
# GRIP1_5, Q9Y3R0 = molecular target: T6, GRIP1_5, Q9Y3R0
# MAGI2_5, Q86UL8 = molecular target: MAGI2_5, Q86UL8
# Chain of MAGI2_5, Q86UL8 (Q86UL8 915-1017): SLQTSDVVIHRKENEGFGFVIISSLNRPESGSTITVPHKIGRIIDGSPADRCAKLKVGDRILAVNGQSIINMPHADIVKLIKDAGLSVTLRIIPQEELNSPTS
# SIPA1L2, Q9P2F8 = molecular target: T7, SIPA1L2, Q9P2F8
# FRMPD1, Q5SYB0 = molecular target: T8, FRMPD1, Q5SYB0
# DLG3_2, Q92796 = molecular target: T9, DLG3_2, Q92796
# NHERF3_4, Q5T2W1 = molecular target: T10, NHERF3_4, Q5T2W1
# TJP1_2, Q07157 = molecular target: TJP1_2, Q07157
# Chain of TJP1_2, Q07157 (Q07157 181-274): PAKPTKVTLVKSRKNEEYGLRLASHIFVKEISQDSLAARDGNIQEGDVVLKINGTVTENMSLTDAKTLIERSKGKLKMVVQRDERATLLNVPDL
# APBA1_2, Q02410 = molecular target: T11, APBA1_2, Q02410
# MPP2, Q14168 = molecular target: T12, MPP2, Q14168
# APBA2_1, Q99767 = molecular target: T13, APBA2_1, Q99767
# NOS1, P29475 = molecular target: NOS1, P29475
# Chain of NOS1, P29475 (P29475 9-101): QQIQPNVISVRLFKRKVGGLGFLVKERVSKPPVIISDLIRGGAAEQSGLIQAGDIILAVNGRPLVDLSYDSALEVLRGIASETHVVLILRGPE
# MAGI2_4, Q86UL8 = molecular target: MAGI2_4, Q86UL8
# Chain of MAGI2_4, Q86UL8 (Q86UL8 772-865): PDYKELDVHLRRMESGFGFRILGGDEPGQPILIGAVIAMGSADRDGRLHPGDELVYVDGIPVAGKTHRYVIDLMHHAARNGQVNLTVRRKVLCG
# GRIP2_5, Q9C0E4 = molecular target: GRIP2_5, Q9C0E4
# Chain of GRIP2_5, Q9C0E4 (Q9C0E4 544-642): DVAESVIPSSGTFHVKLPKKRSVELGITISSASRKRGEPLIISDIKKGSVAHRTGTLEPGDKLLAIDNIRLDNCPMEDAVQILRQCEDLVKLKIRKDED
Binder,"pKd (LNX1_2, Q8TBB1)","pKd (SCRIB_3, Q14160)","pKd (FRMPD3, Q5JV73)","pKd (PDLIM1, O00151)","pKd (TIAM2, Q8IVF5)","pKd (APBA2_2, Q99767)","pKd (DLG4_1, P78352)","pKd (Inadl_6, Q8NI35)","pKd (RADIL, Q96JH8)","pKd (LRRC7, Q96NW7)","pKd (MAST2, Q6P0Q8)","pKd (LNX2_2, Q8N448)","pKd (GRIP1_5, Q9Y3R0)","pKd (MAGI2_5, Q86UL8)","pKd (SIPA1L2, Q9P2F8)","pKd (FRMPD1, Q5SYB0)","pKd (DLG3_2, Q92796)","pKd (NHERF3_4, Q5T2W1)","pKd (TJP1_2, Q07157)","pKd (APBA1_2, Q02410)",other results
"REEPDHSTEV [CCRL2, O00421]",3.65,4.35,3.6,3.53,below the threshold,below the threshold,4.71,below the threshold,3.96,below the threshold,5.3,4.09,below the threshold,4.68,below the threshold,below the threshold,4.59,below the threshold,below the threshold,3.9,"pKd (MPP2, Q14168): below the threshold; pKd (APBA2_1, Q99767): below the threshold; pKd (NOS1, P29475): below the threshold; pKd (MAGI2_4, Q86UL8): 3.95; pKd (GRIP2_5, Q9C0E4): below the threshold"
"LAHVKHKEQI [AQP3, Q92482]",below the threshold,below the threshold,below the threshold,below the threshold,below the threshold,below the threshold,below the threshold,below the threshold,below the threshold,below the threshold,below the threshold,below the threshold,below the threshold,below the threshold,below the threshold,below the threshold,below the threshold,below the threshold,below the threshold,below the threshold,"pKd (MPP2, Q14168): below the threshold; pKd (APBA2_1, Q99767): below the threshold; pKd (NOS1, P29475): below the threshold; pKd (MAGI2_4, Q86UL8): below the threshold; pKd (GRIP2_5, Q9C0E4): below the threshold"
"QSYPSKHDYV [CLDN18, P56856]",3.69,below the threshold,below the threshold,below the threshold,below the threshold,3.62,3.67,below the threshold,4.35,below the threshold,3.87,4.17,below the threshold,below the threshold,3.53,below the threshold,below the threshold,3.48,3.61,4.45,"pKd (MPP2, Q14168): below the threshold; pKd (APBA2_1, Q99767): 3.57; pKd (NOS1, P29475): 4.29; pKd (MAGI2_4, Q86UL8): 3.68; pKd (GRIP2_5, Q9C0E4): below the threshold"

# More lines, main results first:
"pKd (LNX1_2, Q8TBB1)","pKd (SCRIB_3, Q14160)","pKd (FRMPD3, Q5JV73)","pKd (PDLIM1, O00151)","pKd (TIAM2, Q8IVF5)","pKd (APBA2_2, Q99767)","pKd (DLG4_1, P78352)","pKd (Inadl_6, Q8NI35)","pKd (RADIL, Q96JH8)","pKd (LRRC7, Q96NW7)","pKd (MAST2, Q6P0Q8)","pKd (LNX2_2, Q8N448)","pKd (GRIP1_5, Q9Y3R0)","pKd (MAGI2_5, Q86UL8)","pKd (SIPA1L2, Q9P2F8)","pKd (FRMPD1, Q5SYB0)","pKd (DLG3_2, Q92796)","pKd (NHERF3_4, Q5T2W1)","pKd (TJP1_2, Q07157)","pKd (APBA1_2, Q02410)",Binder,other results
below the threshold,3.71,below the threshold,3.56,below the threshold,below the threshold,below the threshold,below the threshold,below the threshold,below the threshold,below the threshold,below the threshold,below the threshold,below the threshold,below the threshold,below the threshold,below the threshold,below the threshold,below the threshold,3.59,"EPQYQPGENL [SRC, P12931]","pKd (MPP2, Q14168): below the threshold; pKd (APBA2_1, Q99767): below the threshold; pKd (NOS1, P29475): below the threshold; pKd (MAGI2_4, Q86UL8): below the threshold; pKd (GRIP2_5, Q9C0E4): below the threshold"
below the threshold,4.33,below the threshold,below the threshold,3.97,below the threshold,4.32,below the threshold,3.9,below the threshold,5.73,4.08,below the threshold,3.74,below the threshold,below the threshold,4.69,below the threshold,below the threshold,3.92,"RFQQRMQTHV [KIRREL1, Q96J84]","pKd (MPP2, Q14168): below the threshold; pKd (APBA2_1, Q99767): below the threshold; pKd (NOS1, P29475): below the threshold; pKd (MAGI2_4, Q86UL8): 3.76; pKd (GRIP2_5, Q9C0E4): below the threshold"
below the threshold,4.06,below the threshold,below the threshold,below the threshold,below the threshold,4.24,3.72,5.17,3.65,4.73,4.13,below the threshold,4.44,below the threshold,below the threshold,4.07,below the threshold,below the threshold,4.15,"APIAGFSSFV [SDK2, Q58EX2]","pKd (MPP2, Q14168): below the threshold; pKd (APBA2_1, Q99767): below the threshold; pKd (NOS1, P29475): 3.53; pKd (MAGI2_4, Q86UL8): 3.94; pKd (GRIP2_5, Q9C0E4): below the threshold"
